Source: patent US20220332804A1 (CSL INNOVATION, published 2022)
Changes are numbered by the printed parent chain.

Legend:
Assay in all cases: SPR, KD relative to WT C2;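 further: biacore SPR at 37 °C, anti-C2 mAbs captured via immobilised goat anti-human IgG, C2 alanine or serine surface mutants as analytes, 1:1 model fitted, double-referenced sensograms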
human C2 I272A = target: T1, human C2 I272A (human, UniProt P06681 21-752)
T1 sequence: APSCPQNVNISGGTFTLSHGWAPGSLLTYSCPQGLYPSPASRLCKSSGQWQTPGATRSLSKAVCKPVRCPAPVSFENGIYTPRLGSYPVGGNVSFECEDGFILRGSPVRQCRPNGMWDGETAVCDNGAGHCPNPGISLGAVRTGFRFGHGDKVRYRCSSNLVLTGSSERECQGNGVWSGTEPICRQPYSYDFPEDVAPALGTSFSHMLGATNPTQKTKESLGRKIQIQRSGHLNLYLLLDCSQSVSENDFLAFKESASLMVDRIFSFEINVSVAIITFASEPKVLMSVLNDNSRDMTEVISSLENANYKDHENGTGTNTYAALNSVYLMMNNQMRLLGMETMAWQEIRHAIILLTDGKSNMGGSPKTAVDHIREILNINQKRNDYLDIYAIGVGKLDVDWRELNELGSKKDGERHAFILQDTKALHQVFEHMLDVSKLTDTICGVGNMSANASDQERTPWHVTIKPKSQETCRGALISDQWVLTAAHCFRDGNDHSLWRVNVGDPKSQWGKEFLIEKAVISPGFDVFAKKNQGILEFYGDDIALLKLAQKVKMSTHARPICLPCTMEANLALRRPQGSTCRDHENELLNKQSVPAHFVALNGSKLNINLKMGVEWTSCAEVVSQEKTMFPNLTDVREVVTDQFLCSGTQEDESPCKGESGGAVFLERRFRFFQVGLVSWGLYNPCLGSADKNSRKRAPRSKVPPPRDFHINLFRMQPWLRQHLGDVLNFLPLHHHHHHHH

human C2 F437A = target: T2, human C2 F437A (human, UniProt P06681 21-752)
T2 sequence: T1 sequence with A252I, F417A

human C2 E275A = target: T3, human C2 E275A (human, UniProt P06681 21-752)
T3 sequence: T1 sequence with A252I, E255A

human C2 N268A = target: T4, human C2 N268A (human, UniProt P06681 21-752)
T4 sequence: T1 sequence with N248A, A252I

B1: RF16-226 (antibody, human IgG4 S228P, lambda)
heavy: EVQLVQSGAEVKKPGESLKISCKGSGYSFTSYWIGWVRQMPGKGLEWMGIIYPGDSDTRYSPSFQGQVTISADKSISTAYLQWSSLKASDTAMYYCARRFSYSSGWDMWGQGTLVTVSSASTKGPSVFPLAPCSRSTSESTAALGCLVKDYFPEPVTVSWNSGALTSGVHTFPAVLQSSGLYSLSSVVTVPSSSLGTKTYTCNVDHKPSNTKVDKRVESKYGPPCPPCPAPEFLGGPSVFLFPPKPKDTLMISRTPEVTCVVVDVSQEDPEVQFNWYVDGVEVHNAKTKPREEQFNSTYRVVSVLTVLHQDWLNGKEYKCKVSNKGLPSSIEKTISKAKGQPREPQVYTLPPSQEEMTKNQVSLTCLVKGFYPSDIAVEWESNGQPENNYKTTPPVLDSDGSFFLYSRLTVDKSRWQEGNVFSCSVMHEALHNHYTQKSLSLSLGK
light: SYELTQPPSVSVSPGQTARITCSGDALTSKYVAWYQQKSGLAPLLVIYEDTRRPSGIPAKFSGSSSGSVATLTISGAHGDDEADYYCYSTDASGHQRVFGGGTKLTVLSQPKAAPSVTLFPPSSEELQANKATLVCLISDFYPGAVTVAWKADGSPVKAGVETTKPSKQSNNKYAASSYLSLTPEQWKSHRSYSCQVTHEGSTVEKTVAPTECS
notes: pH-dependent anti-C2 antibody from a phage display library; also called WT
Human C2 I272A
  Fold diff: 1 fold
Human C2 F437A
  Fold diff: 26 fold
Human C2 E275A
  Fold diff: 1 fold
Human C2 N268A
  Fold diff: 1 fold
